The target in test [1] is LeuM3 on cells of tonsillar B cell preparations (human) (UniProt P08571). The test can be described thus: FACS staining of highly enriched tonsillar B cells.
For test [2], the target named is human CD40 on cells (human) (UniProt P25942). The test can be described thus: FACS staining of highly enriched tonsillar B cells.
In test [3] the target is CD3 on cells of tonsillar B cell preparations (human) (UniProt P07766). The test can be described thus: FACS staining of highly enriched tonsillar B cells, Donor 1.
Test [4] has the same target. The test can be described thus: FACS staining of highly enriched tonsillar B cells, Donor 2.
For test [5] the target is unchanged. Kind of test: FACS staining of highly enriched tonsillar B cells.
In test [6] the target is human B7 antigen on cells (human) (UniProt P33681). Kind of test: FACS of tonsillar B cells cultured for 5 days with immobilized anti-(IgM) antibodies and IL-2.
The target is the same in test [7]. The test can be described thus: FACS staining of highly enriched tonsillar B cells, Donor 1.
For test [8] the target is unchanged. The test can be described thus: FACS staining of highly enriched tonsillar B cells, Donor 2.
Test [9] has the same target. Kind of test: cell-based or functional assay.

We go through four substances from EP0651797B1.

Chain of UniProt P33681 (P33681 35-288): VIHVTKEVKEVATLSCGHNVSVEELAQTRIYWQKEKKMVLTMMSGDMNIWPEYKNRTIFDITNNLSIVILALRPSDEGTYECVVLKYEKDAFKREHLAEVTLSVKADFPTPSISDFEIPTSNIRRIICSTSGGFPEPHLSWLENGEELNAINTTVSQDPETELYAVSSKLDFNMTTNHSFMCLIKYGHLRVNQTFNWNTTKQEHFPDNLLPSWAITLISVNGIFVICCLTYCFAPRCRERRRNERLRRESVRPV
Chain of UniProt P08571 (P08571 20-345): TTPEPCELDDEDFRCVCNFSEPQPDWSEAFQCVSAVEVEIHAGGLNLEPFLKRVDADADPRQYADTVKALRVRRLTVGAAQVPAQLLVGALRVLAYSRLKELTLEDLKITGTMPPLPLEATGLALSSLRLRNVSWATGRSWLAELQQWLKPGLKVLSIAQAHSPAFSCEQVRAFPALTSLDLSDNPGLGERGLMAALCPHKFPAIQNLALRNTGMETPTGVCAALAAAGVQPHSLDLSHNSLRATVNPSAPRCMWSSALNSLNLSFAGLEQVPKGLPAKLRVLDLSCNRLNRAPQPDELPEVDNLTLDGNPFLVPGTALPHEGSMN
Chain of UniProt P25942 (P25942 21-277): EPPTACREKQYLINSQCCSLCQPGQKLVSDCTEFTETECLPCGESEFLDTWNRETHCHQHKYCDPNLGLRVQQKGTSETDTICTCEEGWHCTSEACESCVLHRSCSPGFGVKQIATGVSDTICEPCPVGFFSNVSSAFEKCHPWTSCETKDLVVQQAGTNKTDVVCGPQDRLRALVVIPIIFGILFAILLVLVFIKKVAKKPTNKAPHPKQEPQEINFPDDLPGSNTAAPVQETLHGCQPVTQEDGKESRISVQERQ

In the case of anti-(LeuM3) monoclonal antibody, in test [1], the % of Positive Cells stood at 2.5%.

In test [2], anti-(CD40) monoclonal antibody G28.5 came in with a % of Positive Cells of 92.1%.

With anti-(CD3) monoclonal antibody OKT3, the % of Positive Cells amounted to 8% in [3], 2.1% in test [4] and 2.1% in test [5].

The substance anti-B7 monoclonal antibody B7-24 showed a percentage of cells positive in [6] of 25 percent. Further, the % of Positive Cells in test [7] came out at 12.6%. This substance also returned a % of Positive Cells in [8] of 16.8%. In test [9], this substance had a T-cell proliferation in a secondary MLC; B7-24 0.025 µg/ml, CsA 3 x 10^-7 M (CPM (by the footnote)) of 6; a T-cell proliferation in a secondary MLC; B7-24 0.025 µg/ml, CsA 6 x 10^-7 M (CPM (by the footnote)) of 6; a T-cell proliferation in a secondary MLC; B7-24 0.025 µg/ml, CsA 10^-7 M (CPM (by the footnote)) of 6; a T-cell proliferation in a secondary MLC; B7-24 0.025 µg/ml, no CsA (CPM (by the footnote)) of 47. In test [9], this substance gave a T-cell proliferation in a secondary MLC; B7-24 0.25 µg/ml, CsA 3 x 10^-7 M (CPM (by the footnote)) of 2; a T-cell proliferation in a secondary MLC; B7-24 0.25 µg/ml, CsA 6 x 10^-7 M (CPM (by the footnote)) of 3; a T-cell proliferation in a secondary MLC; B7-24 0.25 µg/ml, CsA 10^-7 M (CPM (by the footnote)) of 3; a T-cell proliferation in a secondary MLC; B7-24 0.25 µg/ml, no CsA (CPM (by the footnote)) of 33. In test [9], this substance showed a T-cell proliferation in a secondary MLC; B7-24 2.5 µg/ml, CsA 3 x 10^-7 M (CPM (by the footnote)) of 3; a T-cell proliferation in a secondary MLC; B7-24 2.5 µg/ml, CsA 6 x 10^-7 M (CPM (by the footnote)) of 3; a T-cell proliferation in a secondary MLC; B7-24 2.5 µg/ml, CsA 10^-7 M (CPM (by the footnote)) of 3; a T-cell proliferation in a secondary MLC; B7-24 2.5 µg/ml, no CsA (CPM (by the footnote)) of 40. Also, in test [9], the T-cell proliferation in secondary MLC; B7-24 0.025 µg/ml, CsA 3 x 10^-6M turned out to be 939 CPM; the T-cell proliferation in secondary MLC; B7-24 0.025 µg/ml, CsA 3 x 10^-7M was determined as 1570 CPM; the T-cell proliferation in secondary MLC; B7-24 0.025 µg/ml, CsA 6 x 10^-6M was 897 CPM; the T-cell proliferation in secondary MLC; B7-24 0.025 µg/ml, CsA 6 x 10^-7M came out at 1590 CPM. In addition, in test [9], the T-cell proliferation in secondary MLC; B7-24 0.025 µg/ml, CsA 10^-7M was found to be 2820 CPM; the T-cell proliferation in secondary MLC; B7-24 0.025 µg/ml, no CsA turned out to be 29400 CPM; the T-cell proliferation in secondary MLC; B7-24 0.25 µg/ml, CsA 3 x 10^-6M is 545 CPM; the T-cell proliferation in secondary MLC; B7-24 0.25 µg/ml, CsA 3 x 10^-7M is 559 CPM. Also, in [9], the T-cell proliferation in secondary MLC; B7-24 0.25 µg/ml, CsA 6 x 10^-6M turned out to be 553 CPM; the T-cell proliferation in secondary MLC; B7-24 0.25 µg/ml, CsA 6 x 10^-7M came out at 788 CPM; the T-cell proliferation in secondary MLC; B7-24 0.25 µg/ml, CsA 10^-6M was 601 CPM; the T-cell proliferation in secondary MLC; B7-24 0.25 µg/ml, CsA 10^-7M was determined as 882 CPM. For the same substance, in test [9], the T-cell proliferation in secondary MLC; B7-24 0.25 µg/ml, no CsA was determined as 20800 CPM; the T-cell proliferation in secondary MLC; B7-24 2.5 µg/ml, CsA 3 x 10^-6M was 609 CPM; the T-cell proliferation in secondary MLC; B7-24 2.5 µg/ml, CsA 3 x 10^-7M amounted to 697 CPM; the T-cell proliferation in secondary MLC; B7-24 2.5 µg/ml, CsA 6 x 10^-6M is 971 CPM. In test [9], this substance showed a T-cell proliferation in secondary MLC; B7-24 2.5 µg/ml, CsA 6 x 10^-7M of 790 CPM; a T-cell proliferation in secondary MLC; B7-24 2.5 µg/ml, CsA 10^-6M of 601 CPM; a T-cell proliferation in secondary MLC; B7-24 2.5 µg/ml, CsA 10^-7M of 1160 CPM; a T-cell proliferation in secondary MLC; B7-24 2.5 µg/ml, no CsA of 25200 CPM.
